Experiments:
Dna2;Cdc24-YFH;RPA = Dna2;Cdc24-YFH;RPA (Schizosaccharomyces …, UniProt Q9URU2;O75004;Q92372;Q92373;Q92374 1-1397;1-501;1-609;1-279;1-104, ||); experiment: EMSA; 1 mM EDTA; supershifted higher-order complex, no Pxd1; 50 mM Tris-HCl pH 7.5, 1 mM EDTA, 1 mM DTT, 0.1 mg/ml BSA, 50 mM NaCl, 5% glycerol, 15 fmol DNA in 10 µl, room temperature 30 min; 5% PAGE in 1x TBE; conditions: protein: native;native;recombinant; tags: none stated (co-expressed with Cdc24-YFH);YFP-FLAG-His6;6xHis-GST on Rpa1 in plasmid pDB2129; copies: 1;1;1;1;1; label: 5' 32P on oligo461; 18 bp duplex with 5' overhang 31 nt on oligo461
Dna2;Cdc24-YFH = Dna2;Cdc24-YFH (Schizosaccharomyces …, UniProt Q9URU2;O75004 1-1397;1-501, |); experiment: EMSA; 1 mM EDTA, no divalent cations; 100-300 ng Dna2-Cdc24; 50 mM Tris-HCl pH 7.5, 1 mM EDTA, 1 mM DTT, 0.1 mg/ml BSA, 50 mM NaCl, 5% glycerol, 15 fmol DNA in 10 µl, room temperature 30 min; 5% PAGE in 1x TBE; conditions: protein: native;native; tags: none stated (co-expressed with Cdc24-YFH);YFP-FLAG-His6; copies: 1;1; label: 5' 32P on oligo461; 18 bp duplex with 5' overhang 31 nt on oligo461
Chain of Dna2;Cdc24-YFH (Q9URU2 whole entry, chain 1 of 2): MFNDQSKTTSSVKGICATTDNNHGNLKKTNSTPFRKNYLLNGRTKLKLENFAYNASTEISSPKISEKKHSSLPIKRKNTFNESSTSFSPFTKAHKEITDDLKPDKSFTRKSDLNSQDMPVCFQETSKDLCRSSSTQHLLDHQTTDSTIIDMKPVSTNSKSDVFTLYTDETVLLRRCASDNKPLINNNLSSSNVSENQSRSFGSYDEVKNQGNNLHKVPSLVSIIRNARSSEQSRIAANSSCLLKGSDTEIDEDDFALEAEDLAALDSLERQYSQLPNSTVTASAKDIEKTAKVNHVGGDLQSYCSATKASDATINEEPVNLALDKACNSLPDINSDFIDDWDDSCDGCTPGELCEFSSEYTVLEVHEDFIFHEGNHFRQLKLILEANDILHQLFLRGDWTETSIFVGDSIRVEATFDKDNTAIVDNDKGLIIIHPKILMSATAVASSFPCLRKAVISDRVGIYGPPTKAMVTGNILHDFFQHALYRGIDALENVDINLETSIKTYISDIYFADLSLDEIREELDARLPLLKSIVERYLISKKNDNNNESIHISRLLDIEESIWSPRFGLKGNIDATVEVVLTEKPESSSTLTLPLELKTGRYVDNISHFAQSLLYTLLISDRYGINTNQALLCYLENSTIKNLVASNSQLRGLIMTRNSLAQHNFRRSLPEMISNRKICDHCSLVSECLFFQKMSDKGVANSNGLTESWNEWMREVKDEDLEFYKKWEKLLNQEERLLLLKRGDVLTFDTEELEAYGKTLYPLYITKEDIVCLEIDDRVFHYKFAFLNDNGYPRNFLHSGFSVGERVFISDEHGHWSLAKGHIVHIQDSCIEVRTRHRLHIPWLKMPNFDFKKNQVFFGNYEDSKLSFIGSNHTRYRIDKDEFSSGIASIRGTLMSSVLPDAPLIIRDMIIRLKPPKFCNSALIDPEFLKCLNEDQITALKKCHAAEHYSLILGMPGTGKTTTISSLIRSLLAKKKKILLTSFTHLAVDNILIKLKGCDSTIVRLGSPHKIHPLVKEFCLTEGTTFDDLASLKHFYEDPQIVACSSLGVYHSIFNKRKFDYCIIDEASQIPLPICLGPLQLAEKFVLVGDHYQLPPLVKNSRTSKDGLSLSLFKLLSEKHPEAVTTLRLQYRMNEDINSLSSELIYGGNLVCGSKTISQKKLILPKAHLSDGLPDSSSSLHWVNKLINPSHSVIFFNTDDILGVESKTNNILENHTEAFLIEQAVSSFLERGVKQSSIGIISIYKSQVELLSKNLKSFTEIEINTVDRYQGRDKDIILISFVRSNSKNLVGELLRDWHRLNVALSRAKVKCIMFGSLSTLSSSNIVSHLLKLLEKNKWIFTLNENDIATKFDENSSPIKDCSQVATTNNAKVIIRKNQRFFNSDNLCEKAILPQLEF
Chain of Dna2;Cdc24-YFH (O75004 whole entry, chain 2 of 2): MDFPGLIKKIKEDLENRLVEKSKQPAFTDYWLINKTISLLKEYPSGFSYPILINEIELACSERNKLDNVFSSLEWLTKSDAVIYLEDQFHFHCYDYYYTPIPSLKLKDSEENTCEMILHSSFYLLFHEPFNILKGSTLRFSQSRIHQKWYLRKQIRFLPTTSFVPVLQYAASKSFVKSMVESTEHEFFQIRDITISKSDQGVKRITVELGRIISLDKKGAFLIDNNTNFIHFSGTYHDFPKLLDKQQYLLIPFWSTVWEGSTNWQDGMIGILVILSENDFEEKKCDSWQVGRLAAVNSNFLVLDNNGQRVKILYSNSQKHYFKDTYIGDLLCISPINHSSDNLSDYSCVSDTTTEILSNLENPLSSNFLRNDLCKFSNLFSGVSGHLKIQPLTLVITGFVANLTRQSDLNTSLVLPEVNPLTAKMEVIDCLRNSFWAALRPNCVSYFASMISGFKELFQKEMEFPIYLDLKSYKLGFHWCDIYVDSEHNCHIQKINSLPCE

B1: 5' overhang DNA (oligo461/oligo463) (dsDNA)
DNA 1: CACGCTACCGAATTCTGACTTGCTAGGACATCTTTGCCCACGTTGACCC
DNA 2: GGGTCAACGTGGGCAAAG
Dna2;Cdc24-YFH;RPA
  binding result: binds
Dna2;Cdc24-YFH
  binding result: binds

Reference: paper PMC4159138, “Fission Yeast Pxd1 Promotes Proper DNA Repair by Activating Rad16^XPF and Inhibiting Dna2” (PLoS Biology, 2014)
